Measured values: publication PMC2847226

Legend:
[1] = target: T1, Trx-HIS6-hTERT(1-200) (hTEN) (human, UniProt O14746 1-200); test: competition EMSA
[2] = target: Trx-HIS6-hTERT(1-200) Q169A (human, UniProt O14746 1-200, Q169A); test: EMSA
[3] = target: Trx-HIS6-hTERT(1-200) T116A/T117A/S118A (human, UniProt O14746 1-200, T116A;T117A;S118A); test: EMSA
[4] = target: Trx-HIS6-hTERT(1-200) Y18A (human, UniProt O14746 1-200, Y18A); test: EMSA
[5] = target: T1, Trx-HIS6-hTERT(1-200) (hTEN); test: EMSA
[6] = target: T1, Trx-HIS6-hTERT(1-200) (hTEN); test: competition EMSA; remark: listed apart in the source
[7] = target: T1, Trx-HIS6-hTERT(1-200) (hTEN); test: competition EMSA; remark: listed apart in the source
[8] = target: T1, Trx-HIS6-hTERT(1-200) (hTEN); test: competition EMSA; remark: listed apart in the source
[9] = target: T1, Trx-HIS6-hTERT(1-200) (hTEN); test: competition EMSA; remark: listed apart in the source

T1 sequence (O14746 1-200): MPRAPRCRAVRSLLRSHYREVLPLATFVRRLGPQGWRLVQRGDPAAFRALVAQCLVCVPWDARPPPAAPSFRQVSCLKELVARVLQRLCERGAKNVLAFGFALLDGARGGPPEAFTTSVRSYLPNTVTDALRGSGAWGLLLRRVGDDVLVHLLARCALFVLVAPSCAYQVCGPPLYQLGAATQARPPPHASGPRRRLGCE
Sequence of Trx-HIS6-hTERT(1-200) T116A/T117A/S118A (O14746 1-200 T116A/T117A/S118A): as the sequence (O14746 1-200) above, with T116A, T117A, S118A counted along it
Sequence of Trx-HIS6-hTERT(1-200) Y18A (O14746 1-200 Y18A): as the sequence (O14746 1-200) above, with Y18A counted along it
Sequence of Trx-HIS6-hTERT(1-200) Q169A (O14746 1-200 Q169A): as the sequence (O14746 1-200) above, with Q169A counted along it

TTAGGGTTAGCGTTAGGG (ssDNA) [I.C11] was tested, and the binding signal [1] was 7 fold lower apparent affinity vs I (relative IC50).

TTAGGGTTAGGGTTAGGG (ssDNA) [(TTAGGG)3 / I]: binds [2]; binds [3]; binds [4]. TTAGGGTTAGGGTTAGGG (ssDNA) [(TTAGGG)3 / I]: binds [5].

GGTTAGGGTTAGG (ssDNA) [VI / (GGTTAG)2G]: binds [6].

GGTTATTATTAGG (ssDNA) [VI.TA6]: binds [7].

GGGTTAGGGTTAGGGTTA (ssDNA) [II]: binds [8].

GGGTTAGGGTTAGGG (ssDNA) [III]: binds [8].

GTTAGGGTTAGGG (ssDNA) [IV]: binds [9].
